Molecular target: T1, MK (endogenous, in the culture of CD4-positive T cells from wild-type murine spleens with APC) (UniProt P12025)
T1 sequence (looked up): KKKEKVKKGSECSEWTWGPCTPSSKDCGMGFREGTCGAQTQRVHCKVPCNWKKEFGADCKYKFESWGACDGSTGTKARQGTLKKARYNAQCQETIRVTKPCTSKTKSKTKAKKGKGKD
Experiment: cell-based or functional assay

proportion of CD4-positive, CD25-positive T cells among the CD4-positive T cells (flow cytometer; IP-13 30 µg/mL, MOG35-55 and APC, five days): 4%
B1: anti-MK antibody (IP-13) (antibody, from another filing, V domains shown)
VH: EVQLQQSGPELVKPGASVKIPCKASGYTFTDYNMGWVKQSHGKSLEWIGDINPNNGGTIYNQKFKGKATLTVDKSSSTAYMELRSLTSEDTAVYYCARWSYSNPYFDYWGQGTTLTVSS
VL: SIVMTQTPNFLLVSAGDRVTITCKASQSVSNDVSWYQQKPGQSPKLLIYYASNLYTGVPDRFTGSGYGTDFTFTISTVQAEDLAVYFCQQDYSSPWTFGGGTKLEIK
